The source of these data is publication PMC8439657.

Test [1] addresses Twin-Strep-tagged wild-type mTORC1 (human) (UniProt P42345). In words: SPR; Biacore T200, CM5 chip; Twin-Strep-tagged mTORC1 captured on Strep-Tactin XT; DEPTOR PDZ (305-409) injected 120 s, 300 s dissociation, 1:2 dilution series from 20 µM; 50 mM HEPES pH 7.5, 100 mM NaCl, 1 mM TCEP; equilibrium responses fit to one-site specific binding with a linear non-specific component. (In SPR one partner is held on a chip, and binding of the other changes the refractive index at the surface.)

Test [2] concerns the target Twin-Strep-tagged activated mTORC1 mutant A1459P (human) (UniProt P42345). The description is as above.
Test [3] concerns the target mTORC1 (wild-type human mTOR, RAPTOR, mLST8), Strep tag removed (human) (UniProt P42345).
The target is the same in test [4]. The source holds these as a separate data set.
The target of test [5] is mTOR^ΔN-mLST8 complex (human) (UniProt P42345).
Test [6] has as its target mTORC1 (wild-type human mTOR, RAPTOR, mLST8), Strep tag removed (human) (UniProt P42345). The source holds these as a separate data set.

A word on the Kd: it is the free concentration of one partner at which half of the binding sites on the other are occupied at equilibrium, for simple one-to-one binding. A low value points to a tighter complex. For the substance “DEPTOR short-linker PDZ, residues 305-409 (from UniProt Q8TB45 305-409) (domain or fragment)”, the Kd stood at 7 µM in test [1] and 0.6 µM in test [2].

In test [3], “DEPTOR (DEP-domain containing mTOR-interacting protein), full length, residues 1-409 (from UniProt Q8TB45 1-409) (natural protein)” displayed an IC50 of inhibition of mTORC1 kinase activity, phosphorylation of GST-S6K1 367-404 peptide (western blot, p-S6K1 Thr389) of 51 µM and an IC50 of inhibition of mTORC1 kinase activity, phosphorylation of wild-type 4EBP1 (western blot, p-4EBP1 Thr37/46) of 14 µM. In addition, the IC50 of inhibition of mTORC1 phosphorylation of the TOS-less 4EBP1 mutant, against wild-type 4EBP1 in test [4] was found to be 2 fold. The IC50 of inhibition of the kinase activity of monomeric mTOR^ΔN-mLST8 in test [5] is 0.4 µM. Besides, in test [6], the fold decrease of the IC50 of DEPTOR inhibition of 4EBP1 phosphorylation in the presence of RHEB-GTP, against mTORC1 alone turned out to be 400 fold.
